The target of test [1] is Human Semaphorin 4D/SEMA4D/CD100 Protein, Fc Tag (Acro, CD0-H5257) (human, UniProt Q92854 22-734). Briefly: ELISA; last HuCD100-Fc row.
In test [2] the target is CynoCD100-His (cynomolgus monkey). Description: ELISA; FIG. 5F. In general terms: ELISA stands for enzyme-linked immunosorbent assay.
Test [3] concerns the target full-length human CD100 protein HuCD100 on cells (human, UniProt Q92854 22-862). Description: FACS. (In flow cytometry, cells or beads pass a laser one at a time.)
Test [4] concerns the target CynoCD100-His (cynomolgus monkey). Description: ELISA.
Test [5] addresses CynoCD100-Fc (cynomolgus monkey). Description: ELISA.
In test [6] the target is T1, MusCD100-His (mouse, UniProt O09126 24-733).
T1 chain: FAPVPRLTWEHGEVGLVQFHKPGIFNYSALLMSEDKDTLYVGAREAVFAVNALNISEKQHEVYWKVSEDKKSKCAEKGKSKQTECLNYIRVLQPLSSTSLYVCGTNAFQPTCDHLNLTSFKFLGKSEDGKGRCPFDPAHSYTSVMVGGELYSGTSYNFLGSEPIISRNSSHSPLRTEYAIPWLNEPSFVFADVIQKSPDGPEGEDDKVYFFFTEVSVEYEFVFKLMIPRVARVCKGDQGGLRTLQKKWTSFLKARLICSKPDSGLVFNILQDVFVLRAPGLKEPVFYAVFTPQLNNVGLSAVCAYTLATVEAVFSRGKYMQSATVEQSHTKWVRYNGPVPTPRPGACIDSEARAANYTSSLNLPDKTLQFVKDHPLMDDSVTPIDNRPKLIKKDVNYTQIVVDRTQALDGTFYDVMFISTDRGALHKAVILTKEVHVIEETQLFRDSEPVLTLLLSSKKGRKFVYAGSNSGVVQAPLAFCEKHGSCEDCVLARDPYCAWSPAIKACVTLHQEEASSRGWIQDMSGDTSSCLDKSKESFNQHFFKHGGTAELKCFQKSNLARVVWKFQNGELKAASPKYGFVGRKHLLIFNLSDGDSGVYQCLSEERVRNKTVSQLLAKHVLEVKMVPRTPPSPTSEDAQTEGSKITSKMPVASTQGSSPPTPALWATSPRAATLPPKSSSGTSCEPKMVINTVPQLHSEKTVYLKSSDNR
Description: ELISA.

Test [7] concerns the target HuCD100-His (human, UniProt Q92854 22-734). Briefly: ELISA.

This note sets out measurements from patent US20260028402A1 (published 2026).

By EC50 is commonly meant the concentration needed to bring the measured effect to its halfway point. High values mean a need for much substance, low ones an effect from little substance.

B1: Pepinemab (antibody, V domains shown)
VH: QVQLVQSGAEVKKPGSSVKVSCKASGYSFSDYYMHWVRQAPGQGLEWMGQINPTTGGASYNQKFKGKATITVDKSTSTAYMELSSLRSEDTAVYYCARYYYGRHFDVWGQGTTVTVSS
VL: DIVMTQSPDSLAVSLGERATINCKASQSVDYDGDSYMNWYQQKPGQPPKLLIYAASNLESGVPDRFSGSGSGTDFTLTISSLQAEDVAVYYCQQSNEDPYTFGQGTKLEIK
As for B1, the EC50 in test [1] turned out to be 0.0659 µg/mL; in test [2], 0.0993 nM; in test [3] it was 0.608 nM; in test [4], 0.128 µg/mL; in test [5], 0.388 µg/mL; in test [6], 0.0908 nM. For the same molecule, in test [7], the EC50 turned out to be 0.122 nM.
